Data on 2 molecules can be found in PMC6904456.

For series [1], the target named is T1, Thrombin (THR) (UniProt P00734;P00734 328-363;364-622). Kind of series: SPR (D-shaped plastic optical fibre); 1-50 nM thrombin, no shift of resonance wavelength; Immobilization in 10 mM phosphate, 138 mM NaCl, 2.7 mM KCl, pH 7.4; sensing in binding buffer (composition and temperature not given in material).
Series [2] addresses T1, Thrombin (THR). Kind of series: SPR (D-shaped plastic optical fibre, Langmuir fit); 10 uM aptamer for immobilization; Langmuir K, printed as K [nM]; Immobilization in 10 mM phosphate, 138 mM NaCl, 2.7 mM KCl, pH 7.4; sensing in binding buffer (composition and temperature not given in material).

A word on the Kd: it is the equilibrium constant for the complex coming apart.

Take CACCAATATTTACGTTCTACTCTCCAATA (ssDNA, 5' BiotinTEG) [non specific aptamer sequence]: in the series with Thrombin (THR) [1], the binding result is reported as “no binding”.

Consider AGTCCGTGGTAGGGCAGGTTGGGGTGACT (ssDNA, 5' BiotinTEG) [TBA29 (biotin-TBA29 thrombin aptamer)], for which, in the series with Thrombin (THR) [2], the Kd amounted to 21.8 nM.
